# Experimental data as given in the nanobody polyreactivity screen of Harvey et al. (2022).
# Assay: yeast display, Sf9 membrane polyspecificity reagent, FACS + sequencing; frameworks hold sequencing errors
# Method in brief: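 Sorting gates, low and high (top ~1%), were placed on anti-HA fluorescence to track expression and on streptavidin fluorescence to track reagent binding. A clone's polyreactivity label is taken from the gate it came out of. The reagent was 10% biotinylated, detergent-solubilized Sf9 membrane, applied for 1 hour at 4 °C to galactose-induced yeast display cells.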
row,Sequence,polyreactivity (PSR sort gate)
1,QVQLVESGAGLVQAGGSLRLSCAASGSTFDAYALGWSRPAPGKERELVAGISSGGSYEFADSVKGRFTISRDYAKNTVYVQMNSLKPEDTAVYYCAADSRQSDYYYQPTKFDYWGQGTQVTVSS,low polyreactivity
2,QVQLVESGAGLVQAGGSLRLSCAASGSTFHYYAMGLYRQAPGKERELVATITWRGGFTYYADSVKGRFTISRDNAKNTVYLQMNSLKPEDTAGYYCTDYYVRRYRDPRLYYWGQGTQVTVSS,high polyreactivity
3,QVQLVESGAGLVQAGGSLRLSCAASGSTFRPNVMGWSRQAPGKERELVAAITYSGRSTYYADSVKGRFTISRDNAKNTVYLQMNTLKPEDTAVYYCAARTWLRYCYWGQGTQVTVSS,high polyreactivity
4,QVQLVESGAGLVQAGGSLRLSCAASGSTFYINTMGLYRQAPGKEREFVAAITWSGGSTYYADSVKGRFTISRDNAKNSGYLQMNSLKPEDTAVYYSAADLYVGDMDYRGQGTQVTVSS,low polyreactivity
5,QVQLVESGAGLVQAGGSLRLSCAASGSTVAGNAMGGYRQAPGTERELVAAIDSSTGSTYYADCVKGRFTISRDNAKITVYLLMNSLKPEDTAVYYCADDQVHKREYDYWGQGTQVTVSS,low polyreactivity
6,QVQLVESGAGLVQAGGSLRLSCAASVRIFDSYAMGWSRQAPGKERELVAAITGSGGRTYYAESVKGRFTISRDNAKNTVYLQMNSQKPEYTAVYYCARALGQRRYDYWGQGTHVTVSS,high polyreactivity
7,QVQLVESGAGLVQAGGSLRLSCAAYGSIFIIYAMGWYRQAPGKERELVAAINTSGTSTYYADSVKGRFTISRDNAKNTVYLQMNSLKPEDTAVYYCAAAGRRSYKYYYWGQGTQVTVSS,high polyreactivity
8,QVQLVESGAGLVQAGGSLRLSCADSGSIFYYYAMGWYRQAPGKEREFGAAIRESVGSTYYADSVKGSFTISRDNAKNTVYLQMNSRKPEDTAVYYCAVRRPRRNYNYPYDYWGQGTQVTVSS,low polyreactivity
9,QVQLVESGAGLVQAGGSLRLSCAPSGRIFDKYAMGWYRQAPGTERELVAAIDWSGGSTYYADSVKGRFTISRDNAKNTVYLQMNCLKPEDTAVYYCAAYWYYEDGQSEARLYGYDYWGQGTQVTVSS,low polyreactivity
10,QVQLVESGAGLVQAGGSLRLSCAPSGRIFTPYAMGWYRQAPGKERELVAVIRDGSTYYADSVKGRFTISRDNSKNTVYLQMNSLKPEDTAVYYCRYDIWVWWSGAYDYWGQGTQVTVSS,low polyreactivity
11,QVQLVESGAGLVQAGGSLRLSCAPSGSTFGDNAMGWYRQAPGKERELVAAISSGGGSTYYADSVKGRFTISRDNAKNTVYLQMNSLKPEDTAVYYCAADGTLTLYRYILDYWGQGTQVTVSS,low polyreactivity
12,QVQLVESGAGLVQAGGSLRLSCASSGFILTGYTMGWYRQAPGKERELVAAISWSGARTYYADSVKGRFTISRDNAKNTVYLQMNSLKPEDTAVYYCARDYYRPTQRYDYWGQGTQVTVSS,high polyreactivity
13,QVQLVESGAGLVQAGGSLRLTCAASGSTFNRYVMGWYRQAPGKERDFVATISQGGGSTYYADSVKGRFTISRDNAKNTVYLHMNSLKPDVTAVYYCAAVSTRQYRYPHEYWGQGTQVTVSS,high polyreactivity
14,QVQLVESGAGLVQAGGSLRVSCAASGRTFAHYAMGWYRQAPGKERELVAAISSGASTNYADSVKGRFTISRDNAKNTVYLQMNSLKPEDTAVYYCAKQAKYHQGTYDYWGQGTQVTVSS,low polyreactivity
15,QVQLVESGAGLVQAGGSLRVSCAASGSTFDSYAMGLYRQAPGKERELVAAITNGGSTYYADSVKGRFTISRDHAKNTVYLQMNRLKPEDTAVYDCATEDYLLDYLYDYWGPGTQVTVSS,low polyreactivity
16,QVQLVESGAGLVQAGGSLSLSCAASGSIWLYAMGWYRQAPGKEREFVAAITRRGSSTYYADSVKGRFTISRDNAKNPVLLQMNSLKPEDTAVYYCAGVSQYGKWRGDYWGQGTQVTVSS,high polyreactivity
17,QVQLVESGAGLVQAGGSRRLSCAASGSIFGVNAMGGYRQAPGKERELVASITGGDSTNYADSVKGRFTISRDNAKNTVYLQMNSLKPEDTAFYYCAKDHYYRYEEGDYWGQGTQVTVSS,low polyreactivity
18,QVQLVESGAGLVQAGRSLRLSCAASGRTLSRFAMGGYRQAPGKERELVAGITSGGDTRTYYADSVKGRFTISRDYAKNTVYLQMNSLKPEDPAVYYCWGQVTQVTVSS,low polyreactivity
19,QVQLVESGARLVQAGGSLRLRCAPSGSIFDGYAMGWYRQAPGKEREFVAAISKGGTRTYYADSVKGRFTISRDNAKNTVYLQMNSLIPEDSAVFYCNAYYRREPDDGDYDYWGQGTQVTVSS,high polyreactivity
20,QVQLVESGEGLVQAGGSLRLSCAASGITFDAYTMGWYRQAPGKERELVAAITWSSTSTYYADSVKGRFTISRDNAKNTVYLQMNSLKPEDTAVFYCAAYRVGDYYWGQGTKVTVSS,low polyreactivity
21,QVQLVESGGALDQAGGSLRLSCAASGSTFYYYAMGWYRQAPGKERELVAAISTSDGSTYYADSVKGRFTISRDNAKNTVYLQMNSLKPEDTAVYYCAADSHDRFPSYYYWGQGTQVTVSS,low polyreactivity

row,Sequence,polyreactivity (PSR sort gate)
1,QVQLVESGGALGQAGGRLRLTCAASGSTFSIYGMGWYRQAHGKEREFVAALRTSGGRTYADSVKGRFTISRDNAKNTVYLQLNSLKPDDPAVDYCAAHVNYIYDWGQGTQVTVSS,high polyreactivity
2,QVQLVESGGALHQAGGSLRLNCAASGRTFGANAMGWYRQAPGKERELVAAISSSDDSTYYADSVKGRFTISRDNAKKTVYLQMNSLKPEDTAVYYCAAEDVYRQLDYWGQGTQVTVSS,low polyreactivity
3,QVQLVESGGALVKAGGSLRLSCAASGYIFYGYAMGRYRQAPGKEWELVAAITVRGGSTYYADSVKGRFTISRDNAKNTVYLQMNSLKPEDTAVYYCAAAPQFTFGVGYWGQGTQVTVSS,low polyreactivity
4,QVQLVESGGALVQAGGSLGLICAASGSIFRWYAMGWYRQAPGKERELVASINSSGDRTYYADSVKGRFTISRDKAKKTVFLQMNSLNPEDTAVYNCAAQISVKVDFWGQGTQVTVSS,high polyreactivity
5,QVQLVESGGALVQAGGSLRFSCASSGRIFSSNTMGWYRQAPGKERELVAAISRGSITYYAHSVKGRFTISRDNAKNTVYLQMNSLKPEDTAVYYCAAGVGLDNYGYGYWGQGTQVTVSS,low polyreactivity
6,QVQLVESGGALVQAGGSLRLICAASGGTFTNYAMGWYSQAPGKERELVAAITDSGATTYYADSVKGRFTNSRDNAKNTVYLQMNSLKPEDTAVYYCNAELDLYTDFDYWGQGTQVTVSS,low polyreactivity
7,QVQLVESGGALVQAGGSLRLSCAASGCIFAPYAMGWYRQAPGKERELVADITEDTGITYYADSVKGRFTISRDNAKNNVYLHMNSLKPVDTAVYYCNAEFYFYDYWGQGTQVTVSS,low polyreactivity
8,QVQLVESGGALVQAGGSLRLSCAASGFIFFQYAMGWYRQAPGKERELVAAISGSGVTTYYADSVKGRFTISRDNAKNTVYLQMNSLKPEDTAVYYCNAALRWKYDWGQGTQVTVSS,low polyreactivity
9,QVQLVESGGALVQAGGSLRLSCAASGFTFLIYAKGWYIQAPGKERELVAAITWRGSGTYYADCVKGRFTISRDNGQNTVYLQMNSLKPEDSAVYYCAARTARRTYDYWGQGTQVTVSS,low polyreactivity
10,QVQLVESGGALVQAGGSLRLSCAASGGIFSYYAMGWYRQAPGKERELVAAMSWSGTSTYYADSVKGRFTISRDNAKNTVYLQMNSLNQEDTAVYYCNKVTYSRAQYIGGDGYFWGEGTQVTVSS,high polyreactivity
11,QVQLVESGGALVQAGGSLRLSCAASGIIFNLYAKGWYRPAPGKEMELVAAITSSGTSTYYADSVKGRFTISRDNAKNTVYLQMNSLSPEDTAVYYCAAERGFYYFVEYDYWGQGTQVTVSS,high polyreactivity
12,QVQLVESGGALVQAGGSLRLSCAASGIILLRYAMGWYRQAPGKERELVAAISYSGGSTYYADSVKGRFTISRDNAKNTVYLQMNSLKPEDTAVYYCNTVGPRRYSYDYWGQGTQVTVSS,high polyreactivity
13,QVQLVESGGALVQAGGSLRLSCAASGIILYYYAMGWYRQAPGKERELVAAISSGGNTYYADSVKGRFTISRDNAKNTVYLQMNSLKPEDTAVYYCAAVTVIGGEYDYWGQGTQVTVSS,low polyreactivity
14,QVQLVESGGALVQAGGSLRLSCAASGITFYDNAMGWYRQAPGKERELVAGISYSGGRTYYADSVKGRFTISRDNAKNTVYLQMNSLIPEDTAVDYCNARFGKYRSRQGYYYWGQGTQVTVSS,high polyreactivity
15,QVQLVESGGALVQAGGSLRLSCAASGITFYFYAMGWYIHAPGKEWELVAAIRSSGDSTYYADSVKGRFTISRDNAKNTVYLQMNSRKPEDTAVYYCAAYSHHQFSRSEYYYWGQGTQVTVSS,low polyreactivity
16,QVQLVESGGALVQAGGSLRLSCAASGLIFTAYAMGWYRQAPGKERELVAAIDWRGGSTSYADSVKGRFTISRDTAKNTVYLQMNSLKPEDTAVYYCAADYYSKYVRFGYWGQGTQVTVSS,high polyreactivity
17,QVQLVESGGALVQAGGSLRLSCAASGRIFGGYAMGWYRQAPGTERELVAAISSGGRTYYADSVKGRFTISRDNAKNTVYLQMNSLKPEDTAVYYCNAYTRGFRLGYWGQGTQVTVSS,high polyreactivity
18,QVQLVESGGALVQAGGSLRLSCAASGRIFYKYVMGWYRQAPGKERELVATITSGGSTYYADSVKWRFTISRDNAKNTVYLQMNSLKPEDTAVYYCAARKYYSRAYDYWGQGTQVTVSS,high polyreactivity
19,QVQLVESGGALVQAGGSLRLSCAASGRTFNYNAMGWYRQAPGKERELVAAITSGASTNYADSVKGRFTISRDNAKNTVYLQMNSLKPEDTAVYYCNAEGYVYYLQEDYWGQGTQVNVSS,low polyreactivity
20,QVQLVESGGALVQAGGSLRLSCAASGRTFNYYAKGWSRQAPGKERELVAAITNGVSTKYADSVKGRFTISRDNAKNTVYLQMNSLKPEDTAVYYCAAQRLYGYRLYNYWGQGTQVTVSS,high polyreactivity
